These results are taken from patent US20240239881A1.

This experiment deals with Cynomolgus monkey Ang2 C-terminal domain (Lys274-Phe495) (cynomolgus monkey). The experiment can be described thus: ForteBio BLI, antibody on AHQ sensor, 100 nM antigen, 1:1 model.
Cynomolgus monkey Ang2 C-terminal domain (Lys274-Phe495) (cynomolgus monkey), sequence (chain, as listed by the source, form in doubt): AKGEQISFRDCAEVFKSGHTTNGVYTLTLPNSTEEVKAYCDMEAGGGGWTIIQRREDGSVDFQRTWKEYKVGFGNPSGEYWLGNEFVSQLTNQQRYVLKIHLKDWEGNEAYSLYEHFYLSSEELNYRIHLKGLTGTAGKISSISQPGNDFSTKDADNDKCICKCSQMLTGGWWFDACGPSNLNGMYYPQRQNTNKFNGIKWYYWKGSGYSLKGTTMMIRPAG

B1: humanized antibody hz81H10.4 (antibody, human IgG1, kappa, V domains shown)
VH: EVQLVESGGGLVKPGGSLRLSCAASGFTFSNYWMNWVRQAPGKGLEWVAEIRLKSNNYATHYAESVKGRFTISRDVSKNTVYLQMNSLKTEDTAVYYCTDTAPFAYWGQGTLVTVSS
VL: DIQMTQSPSSLSASVGDRVTITCKASQDVGTDVAWYQQKPGKAPKLLIYWASTRHTGVPSRFSGSGSGTDFTLTISSLQPEDFATYYCQQYSSYPLTFGGGTKVEIKR
What is called Kd is the equilibrium constant for the complex coming apart. B1 had a Kd of 88.3 nM.

B2: chimeric antibody 81H10 (antibody, human IgG1, kappa, V domains shown)
VH: EVKLEESGGGLVQPGGSMKLSCVASGFTFSNYWMNWVRQSPEKGLEWVAEIRLKSNNYATHYAESVKGRFTISRDVSKSSVYLQMNNLRTEDTGIYYCTDTAPFAYWGQGTLVTVSA
VL: DIVMTQSHKFMSTSVGDRVSITCKASQDVGTDVAWYQQKPGQSPKLLIYWASTRHTGVPDRFTGSGSGTDFTLTISNVQSEDLSDYFCQQYSSYPLTFGGGTKLEIKR
The molecule B2 registered a Kd of 44.3 nM.
